Square brackets hold non-standard residues; d marks the D form. Ends that are not written are not given here. pT = C[C@@H](OP(=O)(O)O)[C@H](N)C(=O)O; pS = N[C@@H](COP(=O)(O)O)C(=O)O
B1: XRCC1 515-529 peptide phosphorylated on Ser518 and Thr519 (peptide)
peptide: YAGSTDENTDSEEHQ
HELM: PEPTIDE1{Y.A.G.[O=C([C@H](COP(=O)(O)O)N[*:1])[*:2]].[C[C@@H](OP(=O)(O)O)[C@H](N[*:1])C(=O)[*:2]].D.E.N.T.D.S.E.E.H.Q.[am]}$$$$V2.0; N-terminus assumed
SMILES: C[C@H](NC(=O)[C@@H](N)Cc1ccc(O)cc1)C(=O)NCC(=O)N[C@@H](COP(=O)(O)O)C(=O)N[C@H](C(=O)N[C@@H](CC(=O)O)C(=O)N[C@@H](CCC(=O)O)C(=O)N[C@@H](CC(N)=O)C(=O)N[C@H](C(=O)N[C@@H](CC(=O)O)C(=O)N[C@@H](CO)C(=O)N[C@@H](CCC(=O)O)C(=O)N[C@@H](CCC(=O)O)C(=O)N[C@@H](Cc1c[nH]cn1)C(=O)N[C@@H](CCC(N)=O)C(N)=O)[C@@H](C)O)[C@@H](C)OP(=O)(O)O
B2: XRCC4 229-237 peptide phosphorylated on Ser232 and Thr233 (peptide)
peptide: YDESTDEES
HELM: PEPTIDE1{Y.D.E.[O=C([C@H](COP(=O)(O)O)N[*:1])[*:2]].[C[C@@H](OP(=O)(O)O)[C@H](N[*:1])C(=O)[*:2]].D.E.E.S.[am]}$$$$V2.0; N-terminus assumed
SMILES: C[C@@H](OP(=O)(O)O)[C@H](NC(=O)[C@H](COP(=O)(O)O)NC(=O)[C@H](CCC(=O)O)NC(=O)[C@H](CC(=O)O)NC(=O)[C@@H](N)Cc1ccc(O)cc1)C(=O)N[C@@H](CC(=O)O)C(=O)N[C@@H](CCC(=O)O)C(=O)N[C@@H](CCC(=O)O)C(=O)N[C@@H](CO)C(N)=O
B3: XRCC1 515-529 peptide phosphorylated on Ser518, Thr519 and Thr523 (peptide)
peptide: YAG[pS][pT]DEN[pT]DSEEHQ-NH2
modifications: N-terminus assumed
SMILES: C[C@H](NC(=O)[C@@H](N)Cc1ccc(O)cc1)C(=O)NCC(=O)N[C@@H](COP(=O)(O)O)C(=O)N[C@H](C(=O)N[C@@H](CC(=O)O)C(=O)N[C@@H](CCC(=O)O)C(=O)N[C@@H](CC(N)=O)C(=O)N[C@H](C(=O)N[C@@H](CC(=O)O)C(=O)N[C@@H](CO)C(=O)N[C@@H](CCC(=O)O)C(=O)N[C@@H](CCC(=O)O)C(=O)N[C@@H](Cc1c[nH]cn1)C(=O)N[C@@H](CCC(N)=O)C(N)=O)[C@@H](C)OP(=O)(O)O)[C@@H](C)OP(=O)(O)O
B4: XRCC1 515-529 peptide phosphorylated on Thr519 (peptide)
peptide: YAGSTDENTDSEEHQ
HELM: PEPTIDE1{Y.A.G.S.[C[C@@H](OP(=O)(O)O)[C@H](N[*:1])C(=O)[*:2]].D.E.N.T.D.S.E.E.H.Q.[am]}$$$$V2.0; N-terminus assumed
SMILES: C[C@H](NC(=O)[C@@H](N)Cc1ccc(O)cc1)C(=O)NCC(=O)N[C@@H](CO)C(=O)N[C@H](C(=O)N[C@@H](CC(=O)O)C(=O)N[C@@H](CCC(=O)O)C(=O)N[C@@H](CC(N)=O)C(=O)N[C@H](C(=O)N[C@@H](CC(=O)O)C(=O)N[C@@H](CO)C(=O)N[C@@H](CCC(=O)O)C(=O)N[C@@H](CCC(=O)O)C(=O)N[C@@H](Cc1c[nH]cn1)C(=O)N[C@@H](CCC(N)=O)C(N)=O)[C@@H](C)O)[C@@H](C)OP(=O)(O)O
B5: XRCC1 515-529 peptide phosphorylated solely on Thr523 (peptide)
peptide: YAGSTDENTDSEEHQ
HELM: PEPTIDE1{Y.A.G.S.T.D.E.N.[C[C@@H](OP(=O)(O)O)[C@H](N[*:1])C(=O)[*:2]].D.S.E.E.H.Q.[am]}$$$$V2.0; N-terminus assumed
SMILES: C[C@H](NC(=O)[C@@H](N)Cc1ccc(O)cc1)C(=O)NCC(=O)N[C@@H](CO)C(=O)N[C@H](C(=O)N[C@@H](CC(=O)O)C(=O)N[C@@H](CCC(=O)O)C(=O)N[C@@H](CC(N)=O)C(=O)N[C@H](C(=O)N[C@@H](CC(=O)O)C(=O)N[C@@H](CO)C(=O)N[C@@H](CCC(=O)O)C(=O)N[C@@H](CCC(=O)O)C(=O)N[C@@H](Cc1c[nH]cn1)C(=O)N[C@@H](CCC(N)=O)C(N)=O)[C@@H](C)OP(=O)(O)O)[C@@H](C)O
B6: XRCC4 229-237 peptide phosphorylated on Thr233 (peptide)
peptide: YDESTDEES
HELM: PEPTIDE1{Y.D.E.S.[C[C@@H](OP(=O)(O)O)[C@H](N[*:1])C(=O)[*:2]].D.E.E.S.[am]}$$$$V2.0; N-terminus assumed
SMILES: C[C@@H](OP(=O)(O)O)[C@H](NC(=O)[C@H](CO)NC(=O)[C@H](CCC(=O)O)NC(=O)[C@H](CC(=O)O)NC(=O)[C@@H](N)Cc1ccc(O)cc1)C(=O)N[C@@H](CC(=O)O)C(=O)N[C@@H](CCC(=O)O)C(=O)N[C@@H](CCC(=O)O)C(=O)N[C@@H](CO)C(N)=O
B7: XRCC4 229-237 peptide phosphorylated on Ser232, Thr233 and Ser237 (peptide)
peptide: YDE[pS][pT]DEE[pS]-NH2
modifications: N-terminus assumed
SMILES: C[C@@H](OP(=O)(O)O)[C@H](NC(=O)[C@H](COP(=O)(O)O)NC(=O)[C@H](CCC(=O)O)NC(=O)[C@H](CC(=O)O)NC(=O)[C@@H](N)Cc1ccc(O)cc1)C(=O)N[C@@H](CC(=O)O)C(=O)N[C@@H](CCC(=O)O)C(=O)N[C@@H](CCC(=O)O)C(=O)N[C@@H](COP(=O)(O)O)C(N)=O

How the values were obtained:
[1] = biological target: aprataxin FHA domain (residues 1-105); experiment: NMR titration; unlabelled XRCC1 peptide added to 92 μM 15N-labelled aprataxin FHA domain up to 1:4; 22 °C; 20 mM Na acetate pH 5.8, 50 mM NaCl, 2 mM DTT; SOFAST-HMQC; apparent Kd, mean of the fits for D37, V45, Q46, V61 and V63
[2] = biological target: aprataxin FHA domain (residues 1-105); experiment: ITC; peptide injected (30 x 10 ul) into FHA domain in the cell; 22 °C; 50 mM HEPES pH 7.5, 150 mM NaCl, 5 mM β-mercaptoethanol; XRCC1 peptides 1 mM into 100 μM protein, XRCC4 peptides 300 μM into 30 μM protein; single-site binding model
[3] = biological target: aprataxin FHA domain K38A (residues 1-105); experiment: as above

Binder | Kd [1] [µM] | fold increase in binding over the mono-phosphorylated peptide [2] [fold] | fold decrease in binding relative to the wild-type [3] [fold] | fold increase in binding over the di-phosphorylated peptide [2] [fold] | fold preference over the mono-phosphorylated (pT233) XRCC4 peptide [2] [fold] | fold tighter binding than the XRCC1 pThr519 peptide [2] [fold]
B1 | 2 | 11 | 8.5 | – | – | –
B2 | – | 8 | 7.6 | – | – | –
B3 | < 1 | – | 8.8 | 3 | 5 | –
B4 | 7 | – | 2.7 | – | – | –
B5 | 7 | – | – | – | – | –
B6 | – | – | 3.2 | – | – | 8
B7 | – | – | 9.3 | – | – | –
